Target: T1, ^75Se-labeled selenoprotein P prepared from HepG2 cells (human (endogenous in HepG2), UniProt P49908 20-381, ^75Se label (cells cultured with ^75Se as selenite); selenocysteine residues)
T1 construct: Selenoprotein P, human, secreted by HepG2 cells that express it endogenously; single band at 69 kDa; also called ^75Se-labeled SeP; ^75Se-labeled human SeP; source: endogenous, HepG2 conditioned medium with ^75Se selenite, partially purified (Ni-NTA agarose, PD-10)
T1 sequence (looked up): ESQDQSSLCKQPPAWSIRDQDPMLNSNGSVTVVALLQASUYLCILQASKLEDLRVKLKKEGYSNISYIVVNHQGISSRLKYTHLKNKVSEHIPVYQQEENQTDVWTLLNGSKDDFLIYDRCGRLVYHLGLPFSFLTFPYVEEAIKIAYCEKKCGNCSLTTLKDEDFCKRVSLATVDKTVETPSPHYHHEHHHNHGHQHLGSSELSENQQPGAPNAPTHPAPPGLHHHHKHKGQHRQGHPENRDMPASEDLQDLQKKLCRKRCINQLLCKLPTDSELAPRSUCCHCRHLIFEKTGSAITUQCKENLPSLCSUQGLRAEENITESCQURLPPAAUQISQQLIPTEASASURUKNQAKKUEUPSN
Experiment: radioligand binding; Jurkat cells (1.4 x 10^7) with serial dilution of ^75Se-labeled SeP, 1 h at 4 °C, RPMI 1640 with 0.1% BSA, 0.1% NaN3, 50 mM Hepes pH 7.4; nonspecific binding with 500-fold excess of unlabeled SeP; Scatchard analysis, n = 4
Conditions: one partner purified

- Kd: 0.67 nM
B1: Apolipoprotein E receptor 2, 140-kDa variant endogenous on Jurkat cells (JΔ5,18) (receptor)
chain: AADPLLGGQGPAKDCEKDQFQCRNERCIPSVWRCDEDDDCLDHSDEDDCPKKTCADSDFTCDNGHCIHERWKCDGEEECPDGSDESEATCTKQVCPAEKLSCGPTSHKCVPASWRCDGEKDCEGGADEAGCATSLGTCRGDEFQCGDGTCVLAIKHCNQEQDCPDGSDEAGCLQGLNECLHNNGGCSHICTDLKIGFECTCPAGFQLLDQKTCGDIDECKDPDACSQICVNYKGYFKCECYPGYEMDLLTKNCKAAAGKSPSLIFTNRHEVRRIDLVKRNYSRLIPMLKNVVALDVEVATNRIYWCDLSYRKIYSAYMDKASDPKEQEVLIDEQLHSPEGLAVDWVHKHIYWTDSGNKTISVATVDGGRRRTLFSRNLSEPRAIAVDPLRGFMYWSDWGDQAKIEKSGLNGVDRQTLVSDNIEWPNGITLDLLSQRLYWVDSKLHQLSSIDFSGGNRKTLISSTDFLSHPFGIAVFEDKVFWTDLENEAIFSANRLNGLEISILAENLNNPHDIVIFHELKQPRAPDACELSVQPNGGCEYLCLPAPQISSHSPKYTCACPDTMWLGPDMKRCYRAPQSTSTTTLASTMTRTVPATTRAPGTTVHRSTYQNHSTETPSLTAAVPSSVSVPRAPSISPSTLSPATSNHSQHYANEDSKMGSTVTAAVIGIIVPIVVIALLCMSGYLIWRNWKRKNTKSMNFDNPVYRKTTEEEDEDELHIGRTAQIGHVYPARVALSLEDDGLP
modifications: highly glycosylated O-linked sugar domain
